Data on 32 molecules can be found in patent US20240018252A1 (Pfizer, published 2024).

Residue numbers refer to the chain shown, from its start.

The experiment addresses T1, human BCMA (human, UniProt Q02223 1-54).
T1 construct: also called huBCMA; hBCMA
T1 sequence: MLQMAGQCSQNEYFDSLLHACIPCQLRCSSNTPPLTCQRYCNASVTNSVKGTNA
As to the kind of experiment: SPR, immobilised IgG, 37° C. On the technique in general: Surface plasmon resonance follows binding to a sensor surface in real time, without labels.

B1: L3.PY/L1.AH/H3.TAQ (antibody, V domains shown)
VH: EVQLLESGGGLVQPGGSLRLSCAASGFTFGSYAMTWVRQAPGKGLEWVSAISGSGGNTFYADSVKGRFTISRDNSKNTLYLQMNSLRAEDTAVYYCTRVSPIAAQMDYWGQGTLVTVSS
VL: EIVLTQSPGTLSLSPGERATLSCRASQSVSAHYLAWYQQKPGQAPRLLIYGASSRATGIPDRFSGSGSGTDFTLTISRLEPEDFAVYYCQHYPYPPSFTFGQGTKVEIK
notes: IgG in the assay
Turning to B1, the “T½” value amounted to 9.68 min.

B2: L3.PY/L3.KF/H3.TAQ (antibody, V domains shown)
VH: B1 VH
VL: B1 VL with A31S, H32S, Q90K, H91F
notes: IgG in the assay
As for B2, the “T½” value amounted to 7.12 min.

B3: L3.PY/L1.FF/H2.LT (antibody, V domains shown)
VH: B1 VH with G53L, S54T, T97A, A104S, Q105G
VL: B1 VL with A31S, H32F, Y33F
notes: IgG in the assay
Consider B3, for which the “T½” value was determined as 6.92 min.

B4: L3.PY/L1.FF/H3.YA (antibody, V domains shown)
VH: B1 VH with T97A, A103Y, Q105G
VL: B1 VL with A31S, H32F, Y33F
notes: IgG in the assay
With B4, the “T½” value was determined as 6.41 min.

B5: L3.PY/L3.KF/H3.AE (antibody, V domains shown)
VH: B1 VH with T97A, Q105E
VL: B1 VL with A31S, H32S, Q90K, H91F
notes: IgG in the assay
Regarding B5, the “T½” value came out at 7.44 min.

B6: L3.PY/L3.KF/H2.YQ (antibody, V domains shown)
VH: B1 VH with G53Y, S54Q, T97A, A104S, Q105G
VL: B1 VL with A31S, H32S, Q90K, H91F
notes: IgG in the assay
In the case of B6, the “T½” value was found to be 5.18 min.

B7: L3.PY/L1.PH/H3.TAQ (antibody, V domains shown)
VH: B1 VH
VL: B1 VL with A31P
notes: IgG in the assay
Regarding B7, the “T½” value is 5.43 min.

B8: L3.PY/L3.KF/H2.DY (antibody, V domains shown)
VH: B1 VH with S52D, G53Y, T97A, A104S, Q105G
VL: B1 VL with A31S, H32S, Q90K, H91F
notes: IgG in the assay
As to B8, the “T½” value was found to be 6.35 min.

B9: L3.PY/L1.FF/H3.AE (antibody, V domains shown)
VH: B1 VH with T97A, Q105E
VL: B1 VL with A31S, H32F, Y33F
notes: IgG in the assay
Regarding B9, the “T½” value is 4.39 min.

B10: L3.PY/L1.FF/H3.AQ (antibody, V domains shown)
VH: B1 VH with T97A
VL: B1 VL with A31S, H32F, Y33F
notes: IgG in the assay
As for B10, the “T½” value was determined as 7.51 min.

B11: L3.PY/L3.KF/H2.LT (antibody, V domains shown)
VH: B1 VH with G53L, S54T, T97A, A104S, Q105G
VL: B1 VL with A31S, H32S, Q90K, H91F
notes: IgG in the assay
Regarding B11, the “T½” value amounted to 6.05 min.

B12: L3.PY/L3.KF/H2.QL (antibody, V domains shown)
VH: B1 VH with S63Q, V64L, T97A, A104S, Q105G
VL: B1 VL with A31S, H32S, Q90K, H91F
notes: IgG in the assay
Take B12: the “T½” value is 9.26 min.

B13: L3.PY/L3.KY/H2.QL (antibody, V domains shown)
VH: B1 VH with S63Q, V64L, T97A, A104S, Q105G
VL: B1 VL with A31S, H32S, Q90K, H91Y
notes: IgG in the assay
As to B13, the “T½” value stood at 5.56 min.

B14: L3.PY/L1.FF/H2.YQ (antibody, V domains shown)
VH: B1 VH with G53Y, S54Q, T97A, A104S, Q105G
VL: B1 VL with A31S, H32F, Y33F
notes: IgG in the assay
In the case of B14, the “T½” value is 7.61 min.

B15: L3.PY/L1.FF/H2.DY (antibody, V domains shown)
VH: B1 VH with S52D, G53Y, T97A, A104S, Q105G
VL: B1 VL with A31S, H32F, Y33F
notes: IgG in the assay
Take B15: the “T½” value came to 4.27 min.

B16: L3.PY/L1.FF/H2.HA (antibody, V domains shown)
VH: B1 VH with G53H, S54A, T97A, A104S, Q105G
VL: B1 VL with A31S, H32F, Y33F
notes: IgG in the assay
As to B16, the “T½” value worked out at 5.29 min.

B17: L3.PY/L1.PH/H2.HA (antibody, V domains shown)
VH: B1 VH with G53H, S54A, T97A, A104S, Q105G
VL: B1 VL with A31P
notes: IgG in the assay
B17: the “T½” value turned out to be 9.99 min.

B18: L3.PY/L3.KY/H2.YQ (antibody, V domains shown)
VH: B1 VH with G53Y, S54Q, T97A, A104S, Q105G
VL: B1 VL with A31S, H32S, Q90K, H91Y
notes: IgG in the assay
Turning to B18, the “T½” value was determined as 7.02 min.

B19: L3.PY/L1.FF/H2.QR (antibody, V domains shown)
VH: B1 VH with S63Q, V64R, T97A, A104S, Q105G
VL: B1 VL with A31S, H32F, Y33F
notes: IgG in the assay
On to B19, for which the “T½” value worked out at 6.54 min.

B20: L3.PY/L3.KF/H3.AQ (antibody, V domains shown)
VH: B1 VH with T97A
VL: B1 VL with A31S, H32S, Q90K, H91F
notes: IgG in the assay
As for B20, the “T½” value worked out at 5.09 min.

B21: L3.PY/L3.KY/H2.DY (antibody, V domains shown)
VH: B1 VH with S52D, G53Y, T97A, A104S, Q105G
VL: B1 VL with A31S, H32S, Q90K, H91Y
notes: IgG in the assay
With B21, the “T½” value is 18 min.

B22: L3.PY/L3.KY/H2.QR (antibody, V domains shown)
VH: B1 VH with S63Q, V64R, T97A, A104S, Q105G
VL: B1 VL with A31S, H32S, Q90K, H91Y
notes: IgG in the assay
Turning to B22, the “T½” value was found to be 11.7 min.

B23: L3.PY/L1.PH/H3.AE (antibody, V domains shown)
VH: B1 VH with T97A, Q105E
VL: B1 VL with A31P
notes: IgG in the assay
For B23, the “T½” value was determined as 8.61 min.

B24: L3.PY/L3.KY/H3.TAQ (antibody, V domains shown)
VH: B1 VH
VL: B1 VL with A31S, H32S, Q90K, H91Y
notes: IgG in the assay
Regarding B24, the “T½” value came to 17.8 min.

B25: L3.PY/L1.FF/H3.TAQ (antibody, V domains shown)
VH: B1 VH
VL: B1 VL with A31S, H32F, Y33F
notes: IgG in the assay
On to B25, for which the “T½” value was determined as 6.12 min.

B26: L3.PY/L3.KY/H2.LT (antibody, V domains shown)
VH: B1 VH with G53L, S54T, T97A, A104S, Q105G
VL: B1 VL with A31S, H32S, Q90K, H91Y
notes: IgG in the assay
In the case of B26, the “T½” value worked out at 12.8 min.

B27: L3.PY/L3.KY/H3.YA (antibody, V domains shown)
VH: B1 VH with T97A, A103Y, Q105G
VL: B1 VL with A31S, H32S, Q90K, H91Y
notes: IgG in the assay
In the case of B27, the “T½” value is 12.7 min.

B28: L3.PY/L1.PH/H3.AQ (antibody, V domains shown)
VH: B1 VH with T97A
VL: B1 VL with A31P
notes: IgG in the assay
Take B28: the “T½” value is 7.27 min.

B29: L3.PY/L3.KF/H3.YA (antibody, V domains shown)
VH: B1 VH with T97A, A103Y, Q105G
VL: B1 VL with A31S, H32S, Q90K, H91F
notes: IgG in the assay
B29: the “T½” value turned out to be 7.85 min.

B30: L3.PY/L1.FF/H2.QL (antibody, V domains shown)
VH: B1 VH with S63Q, V64L, T97A, A104S, Q105G
VL: B1 VL with A31S, H32F, Y33F
notes: IgG in the assay
Take B30: the “T½” value amounted to 8.28 min.

B31: L3.PY/L1.PH/H2.QR (antibody, V domains shown)
VH: B1 VH with S63Q, V64R, T97A, A104S, Q105G
VL: B1 VL with A31P
notes: IgG in the assay
In the case of B31, the “T½” value came out at 4.89 min.

B32: L3.PY/L3.KY/H2.HA (antibody, V domains shown)
VH: B1 VH with G53H, S54A, T97A, A104S, Q105G
VL: B1 VL with A31S, H32S, Q90K, H91Y
notes: IgG in the assay
As to B32, the “T½” value came to 7.1 min.
